{"source": "patent US20230212587A1", "about": "“Mutant Hydroxyphenylpyruvate Dioxygenase Polypeptide, Encoding Gene Thereof and Use Therefor” (Beijing Dabeinong Biotechnology Co., Ltd., priority 2019, published 2023)", "system": "Arabidopsis thaliana T1 plants", "assay": "Topramezone tolerance of transgenic Arabidopsis thaliana T1 plants (pesticide damage grade by bleached leaf area, score, resistance evaluation)", "type": "in vivo", "conditions": "HPPD F372V mutants, Table 7", "how_it_was_run": "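Herbicide tolerance was judged per plant on a bleaching scale (grade 0 no bleaching to grade 3 fully bleached) 7 DAT. Topramezone doses were 0, 25, 50 and 100 g ai/ha on 18-day-old T1 and wild-type plants.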", "data": [{"molecule": "MsHPPDm-F372V: Medicago sativa HPPD mutant F372V, SEQ ID NO: 373 (protein, MsHPPDm-F372V Amino Acid Sequence) MAIETETQTQTGFKLVGFKNFVRANPKSDRFKVKRFHHVEFWCTDATNTARRFSHGLGMPIVAKSDLSTGNQTHASYLLRSGDLNFLFSAAYSPSISLSSPSSTAAIPTFSASNCFSFSASHGLAVRAVAVEVEDAELAFTTSVNNGAIPSSPPVILENHVKLAEVRLYGDVVLRYVSYNDPNPNQNPNLLFLPGFERVSDESSNSSLDFGIRRLDHAVGNVPELSSAVKYVKDFTGFHEFAEFTAEDVGTSESGLNSVVLANNEETVLLPMNEPVYGTKRKSQIETYLEHNEGAGLQHLALKSEDIFRTLREMRKRSGVGGFEFMPSPPVTYYRNLKNRVGDVLSDEQIKECEELGILVDRDDQGTLLQIVTKPIGDRPTIFIEIIQRVGCMLKDEEGKEYQKGGCGGFGKGNFSELFKSIEEYEKTLETRRTA", "values": [{"measurement": "Resistance evaluation", "setting": "topramezone 25 g ai/ha (1x)", "value": "Poorly resistant"}, {"measurement": "Resistance evaluation", "setting": "topramezone 100 g ai/ha (4x)", "value": "Non-resistant"}]}, {"molecule": "NtHPPDm-F372V: Nicotiana tabacum HPPD mutant F372V, SEQ ID NO: 377 (protein, NtHPPDm-F372V Amino Acid Sequence) MGKLETVTTTSAAAADDSSELTTNFKLVGFKNFIRTNPRSDFFSVKSFHHIEFWCGDATNTARRFSWSLGMPIAAKSDLSTGNSVHASYLLRPVSGSLQFLFTAPYSPSISTPSSAAIPSFSTSTHRSFTTTHGLGVRAVALEVENAYTAFSASVSRGAKPMFEPVTIDEQVAMAEVHLYGDVVLRFVSYLKDADNLVFLPGFEAMDETASYKELDYGIRRLDHAVGNVPELGPVVDYIKRFTGFHEFAEFTAEDVGTAESGLNSMVLANNDETVLLPLNEPVYGTKRKSQIQTYLEHNEGAGVQHLALVTEDIFKTLTEMRKRSGVGGFEFMPSPPPTYYKNLKNRAGDVLSDEQILACEELGILVDRDDQGTLLQIVTKPVGDRPTIFIEIIQRIGCMLKDGKGQVYQKGGCGGFGKGNFSELFRSIEEYEKTLEAKQANQVAAA", "values": [{"measurement": "Resistance evaluation", "setting": "topramezone 25 g ai/ha (1x)", "value": "Poorly resistant"}, {"measurement": "Resistance evaluation", "setting": "topramezone 100 g ai/ha (4x)", "value": "Non-resistant"}]}, {"molecule": "SlHPPDm-F372V (protein, SlHPPDm-F372V Amino Acid Sequence) MGKQAAAAADDQQLPGDIEDKFKLVGFNHFVRTNPRSDFFTVKRFHHIEFWCGDATNTARRFSWGLGLPIAAISDLSTGNSVHASYLLRSSSSSQLQFLFTAPYSSAISTSSSASIPTFSVSSHRSFTATHGLGVRAIALEVENSRLAFSTCVAHGAKPVSEPVILNDEVVIAEVHLYGDVVLRFVSFLKDSNCFVFLPGFESVEGAQLDYGIRRLDHAVGNVPELGPVVEYIKSFTGFHEFAEFTAEDVGTAESGLNSVVLANNDETVLFPLNEPVYGTKRKSQIQTYLEHNEGAGVQHLALVTEDIFRTLREMRKRSGIGGFEFMPSPPPTYYKNLKTRAGDILSDEQIQECEELGILVDRDDQGTLLQIVTKPVGDRPTIFLEIIQRIGCMLKNEEGELYQKGGCGGFGKGNFSELFKSIEEYEKTLEAKQNTQVAIA", "values": [{"measurement": "Resistance evaluation", "setting": "topramezone 25 g ai/ha (1x)", "value": "Poorly resistant"}, {"measurement": "Resistance evaluation", "setting": "topramezone 100 g ai/ha (4x)", "value": "Non-resistant"}]}, {"molecule": "N1HPPDm-F372V: Sphingobium sp. N1 HPPD mutant F372V, SEQ ID NO: 389 (protein, N1HPPDm-F372V Amino Acid Sequence) MAADSENPLGLHGFAFAEFTSPDPAAMARQFEQLGFVPAARRKDRGLTLYRQGRIAFILNAGEGEQASAFRAAHGPSANGMAFNVADAKAAHRHAIQSGATDADTAQSALPGTYAIEGIGDSLLYLVDSDPFADWDEVPGWREASAERGVGLDLLDHLTHNVRRGQMRVWSEFYATLFGFEEQKFFDIKGQATGLFSQAMIAPDHEIRIPLNESQDDNSQIEEFIREYNGEGIQHLALTTPDIYSTVEKLRANGVRLQDTIDTYYDLVDERVPGHGEDLARLRKNRILIDGDVHDEGLLLQIVTETMFGPIFFEIIQRKGNEGFGNGNFQVLYESIELDQIRRGVVTVDA", "values": [{"measurement": "Resistance evaluation", "setting": "topramezone 25 g ai/ha (1x)", "value": "Highly resistant"}, {"measurement": "Resistance evaluation", "setting": "topramezone 100 g ai/ha (4x)", "value": "Highly resistant"}]}, {"molecule": "CyHPPDm-F372V: Cyanobacteria HPPD mutant F372V, SEQ ID NO: 387 (protein, CyHPPDm-F372V Amino Acid Sequence) MEFDYLHLYVDDYQSAHRCYQRQWGFTCVNKIITDQGITGIYQQGQILLLISASESSLSRYADYLQKHPPGVGEVAWQVANWQKIQHQLSELQIETTPVIHPLTKAEGLTFLLWGDVHHSIYPVRSELNQNKTLHGVGLTTIDHVVLNIAADQFTQASQWYQQVFGWSVQQSFTVNTPHSGLYSEALASANGKVQFNLNCPTNNSSQIQTFLANNHGAGIQHVAFSTTSITRTVAHLRERGVNFLKIPTGYYQQQRNSSYFNYASLDWDTLQCLEILLDDQDNTGERLLLQIVSQPCYGVGTLFWEIIERRHRAKGFGQGNFQALYEAVETLEKQLEVP", "values": [{"measurement": "Resistance evaluation", "setting": "topramezone 25 g ai/ha (1x)", "value": "Poorly resistant"}, {"measurement": "Resistance evaluation", "setting": "topramezone 100 g ai/ha (4x)", "value": "Non-resistant"}]}, {"molecule": "StHPPDm-F372V: Solanum tuberosum HPPD mutant F372V, SEQ ID NO: 381 (protein, StHPPDm-F372V Amino Acid Sequence) MGKQAATATATATATADDQQLPADIEDKYKLVGFNNFVRTNPRSDLFNVKRFHHIEFWCGDATNTARRFSWGLGLPIAAKSDLSTGNSVHASYLLRSSSSQLQFLFTAPYSPAISTPSSSSIPTFSVSSHRSFTETHGLGVRAIALEVENSRLAFSTCVSHGAKPVSEPVILNDEVVISEVHLYGDVVLRFVSFLKDSNRFVFLPGFELVEGAQLDYGIRRLDHAVGNVPQLGPVVEYIKSFTGFHEFAEFTAEDVGTAESGLNSVVLANNDETVLFPLNEPVYGTKRKSQIQTYLEHNEGAGVQHLALVTEDIFRTLREMRKRSGIGGFEFMPSPPPTYYKNLKSRAGDILSDEQIKECEELGILVDRDDQGTLLQIVTKPVGDRPTIFLEIIQRIGCMLQNAEGELYQKGGCGGFGKGNFSELFKSIEEYEKTLEAKQNTQVAIA", "values": [{"measurement": "Resistance evaluation", "setting": "topramezone 25 g ai/ha (1x)", "value": "Poorly resistant"}, {"measurement": "Resistance evaluation", "setting": "topramezone 100 g ai/ha (4x)", "value": "Non-resistant"}]}, {"molecule": "N2HPPDm-F372V: Sphingobium sp. N2 HPPD mutant F372V, SEQ ID NO: 391 (protein, N2HPPDm-F372V Amino Acid Sequence) MTLFDNPLGLDGFEFVEFSAPAKGMLEPVFAAMGFVMIARHRSKDVQLWRQGGINLIANYEPRSPAAYFAAEHGPSACGMGWRVRNAAKAYELAVERGAEPVDVKTGPMELRLPAIRGIGGSIIYLIDRYEDEDGGLSIYDIDFVYEPGVDRHPEGAGFKIIDHLTHNVYGGRMAHWASFYERVFGFREIRYFDIKGEYTGLTSKAMTAPDGKIRIPLNEEGKAGGGQIEEFLRAYNGEGIQHIAFLCDDLIAAWDKLKALGTPLMTAPPATYYEMLDERLPGHGEPVAELQKRGILLDGSTQQGDPRLLLQIVGQATIGPVFFEFIQRKKDEGFGEGNFTALFESMERDQLRRGTLNAGESA", "values": [{"measurement": "Resistance evaluation", "setting": "topramezone 25 g ai/ha (1x)", "value": "Highly resistant"}, {"measurement": "Resistance evaluation", "setting": "topramezone 100 g ai/ha (4x)", "value": "Highly resistant"}]}, {"molecule": "BvHPPDm-F372V: Beta vulgaris HPPD mutant F372V, SEQ ID NO: 375 (protein, BvHPPDm-F372V Amino Acid Sequence) MGTLSPQPQTSPSQFKLVGYSNFIRVNPLSDLFPVKRFHHVEFWCGDATNVSRRFSWGLGMPIVAKSDLSTGNSVHASYLLRSGELHFLFTSPYSPSLSSPSSATIPTFSFSLFTSFLTSHGLAVRAVAVEVQDAEAAFHISVSNGASPVSPPIRLHDGVVLSEVHLYGDVVLRYVSTSSVVDGIFLPGFEEMLGESSFQELDFGLRRLDHAVGNVPELAPAIEYVKKFTGFHEFAEFTTEDVGTSESGLNSAVVANNDETVLFPMNEPVYGTKRKSQIQTYLEHNEGAGVQHLALMSEDIFWTLREMRKRSGLGGFEFMPSPPPTYYRNLRNRAADVLSEEQMKECEELGILVDKDDQGTLLQIVTKPIGDRPTMFIEIIQRIGCMMKDEEGKVYQKGGCGGFGKGNFSELFKSIEEYEKTLERKPIADTNAT", "values": [{"measurement": "Resistance evaluation", "setting": "topramezone 25 g ai/ha (1x)", "value": "Poorly resistant"}, {"measurement": "Resistance evaluation", "setting": "topramezone 100 g ai/ha (4x)", "value": "Non-resistant"}]}, {"molecule": "CsHPPDm-F372V: Cucumis sativus HPPD mutant F372V, SEQ ID NO: 379 (protein, CsHPPDm-F372V Amino Acid Sequence) MGKEADFPRAPSEATDGGATASQSEFELQGFDNFIRTNPKSDRFKVKRFHHIEFWCTDATNVARRFSWGLGMQIVAKSDLSTGNMTHASYLLRSGHLCFLFTAPYSPSIAAAQNLTPASTASIPSFDHSVCRSFSGTHGFGARAIALEVEDAEIAFRTSVAHGAKPSCPPIVLENRAVLSEVHLYGDVVLRYISYKNPVSGDNGENKPDEWFLPKFEAMEETASFPLDFGIRRLDHAVGNVPELGPAVSYLKGFTGFHEFAEFTAEDVGTSESGLNSMVLANNEEMVLLPINEPVFGTKRKSQIQTYLEHNEGAGVQHLALMSEDIFRTLREMRKRSSVGGFEFMPSPPPTYYKNLKSRAGDVLTDEQIKECEELGILVDKDDQGTLLQIVTKPVGDRPTIFIEIIQRLGCMMKDEEGKAFQKGGCGGFGKGNFSELFKSIEEYEKTLEAKRVSE", "values": [{"measurement": "Resistance evaluation", "setting": "topramezone 25 g ai/ha (1x)", "value": "Poorly resistant"}, {"measurement": "Resistance evaluation", "setting": "topramezone 100 g ai/ha (4x)", "value": "Non-resistant"}]}, {"molecule": "AhHPPDm-F372V: Arachis hypogaea HPPD mutant F372V, SEQ ID NO: 385 (protein, AhHPPDm-F372V Amino Acid Sequence) MATAYTYAHAVTYCNSQHNPPIIPILSTNQHPPRVTLPSSIPHFISTITTFNLKHFPSHSLHTVMVTQTQQNAPSSSPELGFKLVGFKNFVRTNPKSDRFKVIRFHHVEFWCTDATNTASRFSWGLGMPIVAKSDLSTGNAVHASYLLRSGDLNFLFSAPYSASIAGDGASASFPSFSASDCHSFAAKHGLAVRAVAIEVEDASAAFSASVANGAKPVSPAVLLDNSVGFAEVHLYGDVVLRYISYSAPTRESNLNPTLRFLPGFEAVEADSSFPELDYGIRRLDHAVGNVPELAPAVNYLKKFTGFHEFAEFTAEDVGTSESGLNSVVLASNDEMVLLPLNEPVYGTKRKSQIETYLEHNEGAGLQHLALVSEDIFRTLREMRKRSTIGGFQFMPSPPPTYYRNLKKRAGDVLSDEQIKECEELGILVDRDDQGTLLQIVTKPVGDRPTIFIEIIQRIGCMLKDEEGKVYQKGGCGGFGKGNFSELFKSIEEYEKTLESRRTA", "values": [{"measurement": "Resistance evaluation", "setting": "topramezone 25 g ai/ha (1x)", "value": "Poorly resistant"}, {"measurement": "Resistance evaluation", "setting": "topramezone 100 g ai/ha (4x)", "value": "Non-resistant"}]}]}
